Test results published in patent EP3919077A1.

Target: human FcγRIIB (CD32B) on peripheral B cells (human) (UniProt P31994)
Experiment: in vivo receptor occupancy on peripheral B cells of human subjects after infusion of 100 mg BI-1206 (preliminary clinical data)

UniProt P31994, sequence (P31994 43-310): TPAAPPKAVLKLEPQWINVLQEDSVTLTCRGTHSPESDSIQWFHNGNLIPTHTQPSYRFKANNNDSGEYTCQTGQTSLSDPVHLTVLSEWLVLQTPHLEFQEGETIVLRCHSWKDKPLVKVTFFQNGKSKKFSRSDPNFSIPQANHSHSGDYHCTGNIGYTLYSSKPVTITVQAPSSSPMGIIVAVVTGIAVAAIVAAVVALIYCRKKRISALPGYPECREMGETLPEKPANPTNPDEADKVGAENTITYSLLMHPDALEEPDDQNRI

receptor occupancy: 100%
Substance: BI-1206 (antibody)
